In the DeepSol protein solubility set:

Assay: soluble on expression in E. coli; label from the status in PepcDB or PDB records

Row | Sequence | soluble on expression in E. coli
1 | MSSTQTDYRLSDDLLGPVLAILDAYIDPYLAKGLVSAGCVNKLAIEGKRLQLGLVYPYPCMTQYRDTVMALTNKLAVLDAIDEVECEIDFQPKVYSAIASIAPIANVKQVIAVASGKGGVGKSTTAVNLALALAAEGAQVGILDADIYGPSVPLMLGIPNFRPVSPDGKHMTAASAYGIAAQSIGFMLSGDEAAVWRGPMAAGALAQLLNETQWPELDYLVVDMPPGTGDIQLTLSQKVPVSGAVIVTTPQDIALADAKKGITMFQKVNIPVLGIVENMSFHLCPECGHKEHPFGTHGGSKMAERYQVPLLGALPLHINIREAMDVGAPTVVAEPDSEVAALYREIARKVGAELALKQSQKTVSISVSDDELEHHHHHH | soluble
2 | MSSVELPQVMDDNLISRRKKIMQSIEDIRGKKAEIAQALRELGVGKPQENESVKEDMKLLLAAFDSISAQEAQYMDILKTIVGIHEQATLDIAKDFEKKIEDDAQKLKEQKEKQEEDATEEDENAEKTPEEQANSEVIAELQEALLELKQVSEAAVAASELNEKLVERLQLTKRKKSAMMEVRAKKAKDLDDVATKVRAEVMERINKMAALKKTTTKQEKELKELQKQCLQLGLQLGTDENREIDPAAEEALLDDNQRVPVIVETQEKPDLNDEEKEKRREEIRENIKKEMEKKEQVNTLIREKLASMNARRKRLQEIRKMLEKQEHEKEKLDAAISNSAVAVQNDGEGIALTPETPRPSQEDEAEAPAAAETTVVSAPVAASEDIDEEEDGEVTEKSLDDILENARANLSNLTAMRERLEHIKETGGADLNEDDLTLLERLDNVALEEDEKLTPTP | soluble
3 | MSTAKAPTLPASIFRAYDIRGVVGDTLTAETAYWIGRAIGSESLARGEPCVAVGRDGRLSGPELVKQLIQGLVDCGCQVSDVGMVPTPVLYYAANVLEGKSGVMLTGSHNPPDYNGFKIVVAGETLANEQIQALRERIEKNDLASGVGSVEQVDILPRYFKQIRDDIAMAKPMKVVVDCGNGVAGVIAPQLIEALGCSVIPLYCEVDGNFPNHHPDPGKPENLKDLIAKVKAENADLGLAFDGDGDRVGVVTNTGTIIYPDRLLMLFAKDVVSRNPGADIIFDVKCTRRLIALISGYGGRPVMWKTGHSLIKKKMKETGALLAGEMSGHVFFKERWFGFDDGIYSAARLLEILSQDQRDSEHVFSAFPSDISTPEINITVTEDSKFAIIEALQRDAQWGEGNITTLDGVRVDYPKGWGLVRASNTTPVLVLRFEADTEEELERIKTVFRNQLKAVDSSLPVPF | soluble
4 | MSTGKIQFAEQNGSFVLKFVGEVRLTLCSALDSTIEKIFAALNFSAIIIDLTETQSIDSTTLGLLAKLSILSRQKIGLLPTLVTTNPDITRLLQSMGFDQVFNIVDRPIPCPECLSDLPPQDQSEDVVRDKVLEAHRILMGLNESNREAFHDLVSALERH | not soluble
5 | MSTLKIAPSILAADYANFASELARIEETDAEYVHIDIMDGQFVPNISFGADVVASMRKHSKLVFDCHLMVVDPERYVEAFAQAGADIMTIHTESTRHIHGALQKIKAAGMKAGVVINPGTPATALEPLLDLVDQVLIMTVNPGFGGQAFIPECLEKVATVAKWRDEKGLSFDIEVDGGVDNKTIRACYEAGANVFVAGSYLFKASDLVSQVQTLRTALNV | soluble
6 | MSTLSQLKPASLWQLFEKICSIPHPSKHEQKISLWIQDWAKELGLAIKEDAVGNLFIKKPATAGMEDRKGIILQAHMDMVPQKNNDTDHDFITDPIKPYVIDSGDWVTAEGTTLGADNGVGLASALAILASDDIPHGPLEVLVTIDEEAGMTGAFGLEAGWLDGDILINTDSEQEGEVYMGCAGGIDGNATFALTLEDVPSNYQAFNLSISGLKGGHSGVDIHTGRANANKLLVRFLLSASIDFDISLTELNGGSLRNAIPREANASFVVAKDKVEALKVALADYLSTISANLGAIETDIDMLLISPEDFEQCWTKATQASILRALNACPNGVIRMSDDIEGIVETSLNLGVIHTRGSKLNAMVLIRSLHDDGRLETQRMVQSVFELAGANVVFSGAYPGWKPNTDSAIMQTVRDTYESIFNKVPAVMVIHAGLECGLFKTAYPHWDMVSIGPTIKFPHSPDEKIEIATVEQYWQLLVAVLANIPKKLEHHHHHH | soluble
7 | MSTQYLNSNLKVFSLNSNKELAEQIAKHIGVGLGKCSVDRFSDGEVQINIEESIRGCDVFIIQSTSFPVNEHIMELLIMIDALKRASAKTINIVIPYYGYARQDRKARSREPITSKLVANLLETAGATRVITLDLHAPQIQGFFDIPIDHLMGVPILSDYFETKGLKDIVIVSPDHGGVTRARKMADRLKAPIAIIDKRRPRPNVSEVMNIIGNIEGKTAILIDDIIDTAGTITLAANALVENGASEVYACCTHPVLSGPAIERIQNSNIKELVVTNSIVLPEEKKIDKVHELSVAPLIGEAIIRVYEEESVSVLFN | not soluble
8 | MSTRFRLSLALLTTLVLSACDDAPRFTHAEPGEALSGGSATVRKSDQNAFSMPSANLSPVRRLDFSVGNSFFRSPWVIAPSTTTARDGLGPLFNTNACQNCHIKDGRGHPPEAGDSNAVSMLVRLSIPDDPAYADLIRRNGVLPEPTYGGQLQDMSNPGVAPEGKVRVEYDALTVNFRDGTAVELRQPTLRITQLGYGPMHPETHISARIAPPMIGLGLLEAIADDAILANADPDDKNADGISGRPNWVWDDVQQKVVMGRFGWKAGQPNLNQQNVHAFSGDMGLTTSLRRVDDCTPAQTDCLVAPNGNGPDGEPEVSDNILRLVEFYTRNLGVPARRKVADPQVLAGKNLFFEAGCQQCHTPSFKTRSDAAQPELANQDIRPYSDLLLHDMGEGLADNRTEFQATGREWRTPPLWGLGLTETVSGHTQLLHDGRARNMLEAILWHGGEAQAAQRRVLAFDAEQREALLAFLNSL | not soluble
9 | MSTRKDYLSFIAVAAHEFVHTWNVKQYRPKGIVPYDYQQENYSNLLWLVEGSTSYLQYQLLLRGNLMTTDEFFTALAKRITAHAHKPGKESQSVAQASFDAWISEGGDYGNNHSVNIYSEGFLASWLLDFDILAKTALEHHHHHH | not soluble
10 | MSTRWYPIYQRGNPQLRVFLPNFWMKLIRPTEEQPPNVVTFSVSMEMTKYDVRNYLEKIYKLPVVDVRTRIAMGETKKDQTYGYITKKDDVKLAYVTLPREESFVFPDFFSEKAEKQAKEEKSLDESKAGFRRFLDRNKKRPGTPGWFSI | not soluble
11 | MSTTGRIHSFESCGTVDGPGIRFIVFLQGCLMRCKYCHNRDTWDTHDGKEVTVEEIIAEAKSYRHFMNASGGGITCSGGEAMLQPEFVRDFFRAAHAEGIHTCLDTNGYIRKHTEVIDEVLDATDLVMLDIKHMKDEIHQDFIGVSNRRTLDFARYLHKIGQKTWIRYVVVPGYTDDPEAAHMLGEFIKDMDNIEKVELLPYHKLGAHKWEALGLEYPLEGVNPPSKETMDEIQSILSQYHSNVKYLEHHHHHH | not soluble
12 | MSVELRDATVDDLSGIMEIYNDAVVNTTAIWNEVVVDLENRKDWFAARTSRGFPVIVAILDGKVAGYASYGDWRAFDGYRHTREHSVYVHKDARGHGIGKRLMQALIDHAGGNDVHVLIAAIEAENTASIRLHESLGFRVVGRFSEVGTKFGRWLDLTCMELKLG | not soluble
13 | MSVKIDVIRVEIPEGTNVIIGQSHFIKTVEDLYETLASSSPHLKFGIAFCEASGKRLIRWDGNDEELIKLAQQTALKIGAGHTFVIYIKNGFPINVLNRIKNVEEVVRIFAATANPLQVLVAETDQGRGVIGVVDGYTPLGIETEADIKERKELLRKFGYKR | soluble
14 | MSVLEKIDSPADLKKVSNQELEELASEIRTAVLHKVSNIGGHVGPNLGVTELTIALHKVFNSPIDKFIWDVSHQTYPHKILTGRKNGFTDGHFHDITPYTSQRESEHDFFTVGHTSTSIANALGYAKARDLTNDKGNIVAVIGDGSLSGGLAMEALNNAGDFKGNLIILVNDNQMSIAENHGGLYRNLAELRATNGQAENNFFKTFGLDYKYLENGNDIESLIHLFEEVKDIDHPIVLHIHTEKGRGYQPALENKEAFHWHMPFDLETGQSKVIDSGKSYSSVMLDYMDKKVSEGLPLVAINAAIPGIFGLKQFAAKYPDRYIDAGIAEQFTITFGGAMAAAGARPIIFHNSTFVQRAYDQFWHDLAINEEPAIVIVKGGVISGSDETHQGSSAMTWISNIPNIKYLAPTSEEEFISILDWALEQHEEPVVIQMPEHGLESRPTVLTDYSTPSYQMTKSGEKVALLALGGLYSHGEKVAKVLAENGINATLINPLFINDLDQAFLENLVENHQVIATIEDGILDGGFGQKVASFLGKYDVKVLNFGAKREFNDSVPVTELYNRYHLTPELMVADILSLLKLEHHHHHH | not soluble
15 | MSVLIPLVTVDGRDSVLLTKRSIHLRSHRGEVCFPGGRMDPGETTTETALRETFEEIGVNAESVEIWGHLKSVIRRQADFNVTPIVGYISDERVLENLVVNSDEVQAVFTIPIDELIKKAGLTKFQSKRMKYTLPSFDSTEFKVHHNAPNEYLHSTQRVWGLSGVMLHQALTLLNPDVYKHDLIVKFF | not soluble
16 | MSVLNPCMTCGACCAYFRVSFYWAEGDDASGRVPASLTEPVTPFLRCMAGTNQKQPHCKALIGTPGENVSCAIYENRPSTCREFSISGEGGEVNEACNRARARYGLPPLYKDMLFHTTADAATVELSRVQLPANLEHHHHHH | not soluble
17 | MSVMTLKKQTYRVIAVINQGQELLVRAHEPETADIEIIPVTTVVQVTEQNSTGDAAVALDTVTVVGERYVDDIVATLTTLRVGMAVLLQRESGNQYDDNAISVWTLQHAKLGYIARYQNQPYATLMDQGQRLYGIVTVLDQQKQHLELMLWRTTAVPSPIEALQIRQRLAKPRTNLGAVPTHSLQTPLGTIVMMCNGHPIKYQQVPLSPWLTPADELHVTKRYLLTPDWSQVPPDSLITCQVTAKADVVQRWQNEHISAAVLTNASSFYVVGISAQTKTGLNDNLVDDAAQPAVIYRVGQVSAHMQAGFMVSWAPFGDPRVQPALKLALHFSSQPLVPYHPVTPSRTNATFTQQELAALLVSALPNYQGGQRLEPSVTTITVEKLRQTLGDQTYHALANYQRHVQLVAGSTEGVNETLLQALIHAVTYHELTTMHYYQPTVGMVDQVIYPIQLFSTTTKDEDDAQLVGCLALYNYETFEIQQVPLTAIARIAIIADPEHPQTTPETESPDWLRIFLHGWNDDFLEHHHHHH | soluble
18 | MSVTVKRIIDNTVIVPKLPANEDPVEYPADYFRKSKEIPLYINTTKSLSDLRGYVYQGLKSGNVSIIHVNSYLYGALKDIRGKLDKDWSSFGINIGKAGDTIGIFDLVSLKALDGVLPDGVSDASRTSADDKWLPLYLLGLYRVGRTQMPEYRKKLMDGLTNQCKMINEQFEPLVPEGRDIFDVWGNDSNYTKIVAAVDMFFHMFKKHECASFRYGTIVSRFKDCAALATFGHLCKITGMSTEDVTTWILNREVADEMVQMMLPGQEIDKADSYMPYLIDFGLSSKSPYSSVKNPAFHFWGQLTALLLRSTRARNARQPDDIEYTSLTTAGLLYAYAVGSSADLAQQFCVGDNKYTPDDSTGGLTTNAPPQGRDVVEWLGWFEDQNRKPTPDMMQYAKRAVMSLQGLREKTIGKYAKSEFDK | soluble
19 | MSVVKSIELVLPEDRIYLAGSSIKGQVILTLNSTLVDPIVKVELVGRGYVEWSEEAGASCDYSRNVICNNKADYVHKTKTFPVEDNWLSAGSHTFDFHFNLPPRLPSTFTSKFGHVFYFVQASCMGREHILAKKRMYLLVQGTSTFHKETPFQNPLFVEAEEKVSYNCCRQGTVCLQIQMERNTFTPGEKVVFTTEINNQTSKCIKTVVFALYAHIQYEGFTPSAERRSRLDSSELLRQEANTPVTRFNTTKVVSTFNLPLLLSVSSSTQDGEIMHTRYELVTTVHLPWSLTSLKAKVPIIITSASVDSAICQLSEDGVLPVNPDHQN | soluble
